Earlier results as cited in patent publication US8337823B2, “Modified macromolecule” (priority 2006, dated 2012).

Settings: pH 4 and pH 5

Row | Substance | stability of the conjugate in acidic conditions
1 | α-methoxy-ω-(N-(2-methyl-s-octadedcyloxy-[1,3]dioxan-5-yl)-amido}-polyethyleneglycol110 | not stable
2 | α-methoxy-ω-N-(2-octadecyloxy-[1,3]dioxolan-4-yl)methylamido}-polyethyleneglycol110 | good stability at both pH 4 and 5
3 | α-methoxy-ω-{N-2-(3-hydroxypropyl-cholesterylcarbamate)-2-methyl-[1,3]dioxan-5-yl-amido}-polyethyleneglycol110 | not stable
4 | α-methoxy-ω-{N-(2-cholesteryloxy-[1,3]dioxolan-4-yl)methylamido)-polyethyleneglycol110 | very stable at pH 5 but moderately less stable at pH 4
